{
  "source": "patent US20140080161A1",
  "about": "“PHOSPHATASE COUPLED KINASE ASSAY” (RESEARCH AND DIAGNOSTIC SYSTEMS, INC., priority 2010, published 2014)",
  "type_in_all_cases": "biochemical",
  "key": {"[1]": {"experiment": "ADP hydrolysis curve with increasing amounts of phosphatase, free phosphate by Malachite Green", "excerpt": "The relative activity of the phosphatase on ADP and ATP can be measured by creating hydrolysis curves for ADP and ATP. For example, such hydrolysis curves may be created by performing a series of reactions separately combining set quantities of ADP or ATP with varying quantities of phosphatase and detecting the free phosphate produced. An example of such curves is described in Example 1 below. The resulting phosphate levels (or OD readings, which directly correspond to the phosphate levels) can be plotted against the amount of phosphatase used. The phosphate level or OD readings can be compared at the same quantity of the phosphatase to determine the relative activity of the phosphatase for ADP as compared to ATP. […] The amount of phosphatase to be used for kinase reactions is preferably selected from within the rapidly rising portion of the ADP hydrolysis curve. In addition, the relative activity of the phosphatase for ADP versus ATP is preferably compared within this rapidly rising portion of the hydrolysis curve, at or near the steepest portion of the curve. At phosphatase levels below this range, the generated signals are weak, while at phosphatase levels above this range, the ADP hydrolysis approaches completion, which could underestimate the activity of the phosphatase on ADP due to exhaustion of the substrate.\nThe kinase reactions were carried out in 50 μL of kinase assay buffer including 25 mM Tris, 150 mM NaCl, 5 mM MgCl2, and 5 mM CaCl2 at pH 7.5 in a 96 well plate at room temperature. Each reaction was stopped with 30 μL of Malachite Reagent A and 100 μL of water. The color was developed with 30 μL Malachite Reagent B. The plate was read at 620 nm with a multi-well plate reader. If the predicted phosphate content in the reaction was above 4,000 pmol, the reaction was diluted before phosphate detection.\nIn this experiment, the relative activity of rhCD39L2 on ADP and ATP was determined. In a first series of reactions, 100 nmol of 2 mM ATP was combined with increasing amounts of rhCD39L2 (0.03125 μg, 0.0625 μg, 0.125 μg, 0.25 μg, 0.5 μg) for 20 minutes. Likewise in a second series of reactions, 100 nmol of 2 mM ADP was combined with the same increasing amounts of rhCD39L2 for 20 minutes. The reactions were stopped after 20 minutes and free phosphate was measured using the Malachite Green assay as described above.\nThe relative activity of recombinant mouse CD 39L2 (rmCD39L2) on ADP and ATP was determined in a series of reactions similar to Example 1. 100 nmol of 2 mM ATP was combined with increasing amounts of rmCD39L2 (0.03125 μg, […], 0.125 0.25 μg, 0.5 μg). Likewise in a second series of reactions, 100 nmol of 2 mM ADP was combined with the same increasing amounts of rmCD39L2. The reactions were stopped after 5 minutes and free phosphate was measured using the Malachite Green assay as described above.\nThe experiment of Example 1 was repeated using recombinant human CD39L4 (rhCD39L4). 100 nmol of ATP (2 mM) was combined with increasing amounts of rhCD39L4 (0.03125 μg, 0.0625 μg, 0.125 μg, 0.25 μg, 0.5 μg, 1.0 μg). Likewise in a second series of reactions, 100 nmol of ADP (2 mM) was combined with the same increasing amounts of rhCD39L4 for 5 minutes. The reactions were stopped after 5 minutes and free phosphate was measured using the Malachite Green assay as described above. […] As such, the necessary preference of the phosphatase for ADP as compared to ATP is present."}, "[2]": {"experiment": "Coupling capacity of the phosphatase (ADP completely hydrolyzed)", "details": "0.2 μg phosphatase", "excerpt": "Phosphatases useful in embodiments of the invention are preferably able to completely hydrolyze all of the ADP generated in a kinase reaction. The amount of complete hydrolysis which can be performed by a phosphatase under a set of reaction conditions may be characterized as the coupling capacity of the phosphatase. As such, the coupling capacity represents the amount of ADP that can be completely hydrolyzed by a given amount of a phosphatase under specific conditions. Coupling capacity may be determined by performing a series of reactions, combining a set amount of phosphatase with increasing amounts of ADP. The reactions may be performed for various lengths of time, with different coupling capacities as a result. The desired reaction time and amount of phosphatase to be used in kinase reactions can then be selected such that the corresponding coupling capacity is greater than the anticipated amount of ADP produced in the kinase reaction. Coupling capacity can be determined as the maximum amount of ADP that is completely hydrolyzed by a given amount of phosphatase in FIG. 3. […] At this level of ADP production, the amount of phosphatase is therefore adequate. However, as the level of ADP produced increases beyond the capacity for a given amount of phosphatase, hydrolysis may not be complete. At this point, coupling capacity is not adequate for the ADP production during a kinase reaction, and the hydrolysis curve diverges and falls below the phosphate standard curve. […]\nIn order to provide a measurement of kinase activity, the phosphatase needs to be able to completely hydrolyze all ADP generated by the kinase reaction. In this example, the coupling capacity was determined by performing three series of reactions combining 0.2 μg rhCD39L2 with increasing amounts of ADP (3.125, 6.25, 12.5, 25, 50, and 100 nmols), with each series of reactions allowed to run for various lengths of time 10, 20 or 40 minutes. The reactions were stopped and free phosphate was measured using the Malachite Green assay as described above. […]"}, "[3]": {"experiment": "ATP hydrolysis curve with increasing amounts of phosphatase, free phosphate by Malachite Green", "details": "0.25 μg phosphatase, 100 nmol of 2 mM ATP, 20 minutes", "excerpt": "The relative activity of the phosphatase on ADP and ATP can be measured by creating hydrolysis curves for ADP and ATP. For example, such hydrolysis curves may be created by performing a series of reactions separately combining set quantities of ADP or ATP with varying quantities of phosphatase and detecting the free phosphate produced. An example of such curves is described in Example 1 below. The resulting phosphate levels (or OD readings, which directly correspond to the phosphate levels) can be plotted against the amount of phosphatase used. The phosphate level or OD readings can be compared at the same quantity of the phosphatase to determine the relative activity of the phosphatase for ADP as compared to ATP. […]\nThe kinase reactions were carried out in 50 μL of kinase assay buffer including 25 mM Tris, 150 mM NaCl, 5 mM MgCl2, and 5 mM CaCl2 at pH 7.5 in a 96 well plate at room temperature. […] The color was developed with 30 μL Malachite Reagent B. The plate was read at 620 nm with a multi-well plate reader. […]\nIn this experiment, the relative activity of rhCD39L2 on ADP and ATP was determined. […] The reactions were stopped after 20 minutes and free phosphate was measured using the Malachite Green assay as described above.\nThe relative activity of recombinant mouse CD 39L2 (rmCD39L2) on ADP and ATP was determined in a series of reactions similar to Example 1. […]"}},
  "data": [
    {"molecule": "rhCD39L2: recombinant human CD39L2, nucleotide phosphatase preferring ADP over ATP, used for coupling (protein, UniProt O75354 1-484, looked up) Ectonucleoside triphosphate …: MKKGIRYETSRKTSYIFQQPQHGPWQTRMRKISNHGSLRVAKVAYPLGLCVGVFIYVAYIKWHRATATQAFFSITRAAPGARWGQQAHSPLGTAADGHEVFYGIMFDAGSTGTRVHVFQFTRPPRETPTLTHETFKALKPGLSAYADDVEKSAQGIRELLDVAKQDIPFDFWKATPLVLKATAGLRLLPGEKAQKLLQKVKKVFKASPFLVGDDCVSIMNGTDEGVSAWITINFLTGSLKTPGGSSVGMLDLGGGSTQIAFLPRVEGTLQASPPGYLTALRMFNRTYKLYSYSYLGLGLMSARLAILGGVEGQPAKDGKELVSPCLSPSFKGEWEHAEVTYRVSGQKAAASLHELCAARVSEVLQNRVHRTEEVKHVDFYAFSYYYDLAAGVGLIDAEKGGSLVVGDFEIAAKYVCRTLETQPQSSPFSCMDLTYVSLLLQEFGFPRSKVLKLTRKIDNVETSWALGAIFHYIDSLNRQKSPAS", "values": [
      {"measurement": "phosphate released from ADP", "setting": "[1]; 0.25 μg phosphatase, 100 nmol of 2 mM ADP, 20 minutes", "value": "about 80 nmol"},
      {"measurement": "fold more active on ADP", "setting": "[1]; Example 1, 20 minutes, allowing for two hydrolyzable phosphates of ATP", "value": "about 70 fold"},
      {"measurement": "fold more phosphate released from ADP than from ATP", "setting": "[1]; rising phases of the ADP hydrolysis curve, 20 minutes", "value": 35, "unit": "fold"},
      {"measurement": "coupling capacity", "setting": "[2]; 10 minute reaction", "value": "10 nmole of ADP"},
      {"measurement": "coupling capacity", "setting": "[2]; 20 minute reaction", "value": "20 nmole of ADP"},
      {"measurement": "coupling capacity", "setting": "[2]; 40 minute reaction", "value": "100 nmole of ADP"},
      {"measurement": "phosphate released from ATP", "setting": "[3]", "value": "less than 3 nmole"}
    ]}
  ]
}
